Reference: PMC5955432

Biological target: Skp1-FBW7 complex (UniProt Q969H0)
Assay: ITC; MicroCal VP-ITC, 30°C; cell: 15 μM purified Skp1-FBW7 complex in 50 mM phosphate buffer, pH 7.4; syringe: 321 μM FIRΔexon2; 10 μL injections, 20 s, 150 s delay

Chain of UniProt Q969H0 (Q969H0 whole entry, chain 1 of 2): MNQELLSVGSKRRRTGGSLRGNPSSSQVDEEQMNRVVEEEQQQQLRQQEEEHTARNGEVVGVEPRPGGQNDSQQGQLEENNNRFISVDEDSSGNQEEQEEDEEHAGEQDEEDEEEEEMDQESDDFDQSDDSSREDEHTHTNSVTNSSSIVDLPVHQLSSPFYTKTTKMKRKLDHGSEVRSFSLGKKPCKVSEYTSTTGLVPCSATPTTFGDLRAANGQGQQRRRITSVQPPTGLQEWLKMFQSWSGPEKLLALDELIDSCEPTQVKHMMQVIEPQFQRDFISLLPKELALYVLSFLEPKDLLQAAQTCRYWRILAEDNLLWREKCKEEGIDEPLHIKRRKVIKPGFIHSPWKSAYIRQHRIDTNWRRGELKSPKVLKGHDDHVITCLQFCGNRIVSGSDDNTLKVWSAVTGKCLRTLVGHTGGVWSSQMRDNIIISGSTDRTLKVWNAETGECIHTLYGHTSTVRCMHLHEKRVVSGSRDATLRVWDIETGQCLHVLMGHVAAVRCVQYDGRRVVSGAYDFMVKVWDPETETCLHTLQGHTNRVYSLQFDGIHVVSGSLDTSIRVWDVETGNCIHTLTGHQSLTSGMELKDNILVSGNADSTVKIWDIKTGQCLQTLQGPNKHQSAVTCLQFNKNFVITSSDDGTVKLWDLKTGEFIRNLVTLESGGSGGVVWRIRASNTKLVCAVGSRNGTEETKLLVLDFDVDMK
Chain of UniProt Q969H0 (P63208 whole entry, chain 2 of 2, further chain): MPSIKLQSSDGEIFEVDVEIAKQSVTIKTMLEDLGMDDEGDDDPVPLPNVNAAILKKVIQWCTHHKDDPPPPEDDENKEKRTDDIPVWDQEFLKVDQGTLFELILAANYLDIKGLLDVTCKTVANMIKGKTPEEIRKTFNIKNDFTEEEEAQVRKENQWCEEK

FIRΔexon2 (alternative splicing variant of far upstream element binding protein 1 (FUBP1) interacting repressor, FIR / PUF60, lacking exon 2) (natural protein)
Ka: > 1e+08 M⁻¹
